Source: paper PMC11490872, “Drug-resistant menin variants retain high binding affinity and interactions with MLL1” (The Journal of Biological Chemistry, 2024)
Where a chain is given by its changes, count along the chain named. Where two headings read alike, the source gives them in different places. Each block holds one molecule with its values, some of them ahead of it.

Assays:
Format in all cases: binding
[1] = molecular target: T1, menin^WT bound to FLSN-MLL1^4-43 (Homo sapiens, UniProt O00255); test: FP competition, displacement of FLSN-MLL1^4-43 from menin^WT
T1 construct: Full-length human menin was expressed in BL21(DE3) cells; thioredoxin-His6 (cleaved yes); made in house; host or cells: E. coli BL21(DE3); probe peptide from GenScript
T1 sequence (O00255 1-610): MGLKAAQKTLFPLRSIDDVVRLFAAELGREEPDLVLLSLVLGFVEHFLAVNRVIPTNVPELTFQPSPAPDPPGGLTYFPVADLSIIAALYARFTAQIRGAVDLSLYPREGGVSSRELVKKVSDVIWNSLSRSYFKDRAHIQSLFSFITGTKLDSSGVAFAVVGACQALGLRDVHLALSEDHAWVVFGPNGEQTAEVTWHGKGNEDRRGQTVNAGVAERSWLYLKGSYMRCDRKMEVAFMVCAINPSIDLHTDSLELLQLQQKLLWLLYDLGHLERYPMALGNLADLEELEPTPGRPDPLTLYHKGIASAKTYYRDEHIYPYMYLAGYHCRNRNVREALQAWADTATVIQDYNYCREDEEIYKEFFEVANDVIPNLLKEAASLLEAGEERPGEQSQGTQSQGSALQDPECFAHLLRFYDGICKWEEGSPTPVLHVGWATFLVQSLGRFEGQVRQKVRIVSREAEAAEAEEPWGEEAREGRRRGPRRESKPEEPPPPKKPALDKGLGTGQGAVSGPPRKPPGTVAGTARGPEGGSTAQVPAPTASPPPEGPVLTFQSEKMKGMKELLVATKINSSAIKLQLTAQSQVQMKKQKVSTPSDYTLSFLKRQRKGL
Protocol: (§1) FP competition experiments used FLSN-MLL1^4-43 at 4 nM and menin at 4 nM against varying concentrations of unlabeled MLL1 peptides in FP buffer for IC50 determination. Protein-peptide complexes were incubated for 1 h before unlabeled peptide competitors were added to ensure complete binding. Unlabeled peptide competitors were incubated with the protein-peptide complexes for 3 h before measurement using the PHERAstar microplate reader ([25]). Experiments with Revumenib were run with the same steps and conditions but used 5% DMSO in the final solution. Kd and IC50 values were calculated using GraphPad Prism 10 by plotting mP values measured for each protein/MLL1 peptide or Revumenib as a function of protein/MLL1 peptide (or Revumenib) concentration ([25]). All FP binding and competition experiments were run in triplicate.

[2] = molecular target: T2, menin^T349M bound to FLSN-MLL1^4-43 (Homo sapiens, UniProt O00255, T344M); test: FP competition, displacement of FLSN-MLL1^4-43 from menin^T349M
T2 construct: The gene encoding full-length human menin was cloned into a pET32a expression vector; thioredoxin-His6 (cleaved yes); made in house; host or cells: E. coli BL21(DE3); probe peptide from GenScript
T2 sequence (O00255 1-610 T344M): T1 sequence (O00255 1-610) with T344M
Protocol: as §1

[3] = molecular target: T3, menin^G331R bound to FLSN-MLL1^4-43 (Homo sapiens, UniProt O00255, G326R); test: FP competition, displacement of FLSN-MLL1^4-43 from menin^G331R
T3 construct: The gene encoding full-length human menin was cloned into a pET32a expression vector; thioredoxin-His6 (cleaved yes); made in house; host or cells: E. coli BL21(DE3); probe peptide from GenScript
T3 sequence (O00255 1-610 G326R): T1 sequence (O00255 1-610) with G326R
Protocol: as §1

[4] = FP competition with MLL1 fragments, 3 h incubation, N = 3, Fig. 3B, read-out: WT IC50
[5] = FP competition with MLL1 fragments, 3 h incubation, N = 3, Fig. 3B, read-out: T349M IC50
[6] = FP competition with MLL1 fragments, 3 h incubation, N = 3, Fig. 3B, read-out: G331R IC50

IC50 ([1]; FP competition, 5% DMSO, 3 h, N = 3, Fig. 4A, read-out: IC50 (nM), menin variant WT): 5.7 nM
IC50 ([2]; FP competition, 5% DMSO, 3 h, N = 3, Fig. 4A, read-out: IC50 (nM), menin variant T349M): 125 ± 11 nM
IC50 ([3]; FP competition, 5% DMSO, 3 h, N = 3, Fig. 4A, read-out: IC50 (nM), menin variant G331R): 30 ± 2.5 nM
reduction of activity against G331R ([3]; versus wild-type IC50): 5 fold
Molecule: CCN(C(=O)c1cc(F)ccc1Oc1cncnc1N1CC2(CCN(C[C@H]3CC[C@H](NS(=O)(=O)CC)CC3)CC2)C1)C(C)C [Revumenib, reference compound]

IC50 [1, 4]: 1.6 ± 0.7 nM
IC50 [2, 5]: 1.9 ± 0.5 nM
IC50 [3, 6]: 3.1 ± 0.7 nM
Molecule: MLL1^46: recombinant MLL1 fragment spanning amino acids 1–46, containing MBM1 and MBM2 (MAHSARWRFPARPGTTGGGGGGGRRGLGGAPRQRVPALLLPPGPPV; The printed 'Cys2' is Cys5 in the entry (peptide S4-A5-R6); Trx-His6 tag cl)

IC50 [1, 4]: 4.1 ± 1.3 nM
IC50 [2, 5]: 4.4 ± 0.8 nM
IC50 [3, 6]: 8 ± 0.5 nM
B1: MLL1^160: N-terminal 160 amino acids of human MLL1, Cys2 mutated to alanine, recombinant (protein)
chain: MAHSARWRFPARPGTTGGGGGGGRRGLGGAPRQRVPALLLPPGPPVGGGGPGAPPSPPAVAAAAAAAGSSGAGVPGGAAAASAASSSSASSSSSSSSSASSGPALLRVGPGFDAALQVSAAIGTNLRRFRAVFGESGGGGGSGEDEQFLGFGSDEEVRVR
modifications: The printed 'Cys2' is the single N-terminal cysteine, Cys5 in the entry (peptide S4-A5-R6); Trx-His6 tag cleaved
